Laboratory results from the RNAGym collection of RNA variant scans (doi:10.7554/elife.80360).

B1: HDV Ribozyme (parent)
chain: GGCCGGCAUGGUCCCAGCCUCCUCGCUGGCGCCGGCUGGGCAACAUUCCGAGGGGACCGUCCCCUCGGUAAUGGCGAAUGGGACCCA

Variants of: B1
Experiment: self-cleavage, relative activity (ratio to wild type); higher = more cleavage; co-transcriptional

Variant | self-cleavage
GGCCGGCAUGGUCCCAGCCUCCUCGCUGGCGCCGGCUGGGCAACACUCCGAGGGGACCGUACCCUCGGUAAUGGCGAAUGGGACCCA [U46C C61A] | 1.09
GGCCGGCAUGGUCCCAGCCUCCUCGCUGGCGCCGGCUGGGCAACAGUGCGAGGGGACCGUCCCCUCGGUAAUGGCGAAUGGGACCCA [U46G C48G] | 0.475
GGCCGGCAUGGUCCCAGCCUCCUCGCUGGCGCCGGCUGGGCAACAGUCCGAGGGGACCGUCCCCUCGGUAAUGGCGAGUGGGACCCA [U46G A78G] | 0.443
GGCCGGCAUGGUCCCAGCCUCCUCGCUGGCGCCGGCUGGGCAACAGUCCGAGGGGACAGUCCCCUCGGUAAUGGCGAAUGGGACCCA [U46G C58A] | 0.639
GGCCGGCAUGGUCCCAGCCUCCUCGCUGGCGCCGGCUGGGCAACAGUCCGAGGGGACUGUCCCCUCGGUAAUGGCGAAUGGGACCCA [U46G C58U] | 0.532
GGCCGGCAUGGUCCCAGCCUCCUCGCUGGCGCCGGCUGGGCAACAGUCCGAGGGGACCGUCCCCUCGGUAAUGGGGAAUGGGACCCA [U46G C75G] | 0.0639
GGCCGGCAUGGUCCCAGCCUCCUCGCUGGCGCCGGCUGGGCAACAGUCCGAGGGGACCGUCCCCUCGGUAAUGGAGAAUGGGACCCA [U46G C75A] | 0.208
GGCCGGCAUGGUCCCAGCCUCCUCGCUGGCGCCGGCUGGGCAACAGUCCGAGGGUACCGUCCCCUCGGUAAUGGCGAAUGGGACCCA [U46G G55U] | 0.569
GGCCGGCAUGGUCCCAGCCUCCUCGCUGGCGCCGGCUGGGCAACACUCCGAGGGGACCGUCCCCACGGUAAUGGCGAAUGGGACCCA [U46C U65A] | 0.853
GGCCGGCAUGGUCCCAGCCUCCUCGCUGGCGCCGGCUGGGCAACAGUCCGAGGGGAGCGUCCCCUCGGUAAUGGCGAAUGGGACCCA [U46G C57G] | 0.804
GGCCGGCAUGGUCCCAGCCUCCUCGCUGGCGCCGGCUGGGCAACAAUCCGAGGGGACCGUCCCCUCGGUAAUGGCGAACGGGACCCA [U46A U79C] | 0.215
GGCCGGCAUGGUCCCAGCCUCCUCGCUGGCGCCGGCUGGGCAACACUCCGAGGAGACCGUCCCCUCGGUAAUGGCGAAUGGGACCCA [U46C G54A] | 0.519
GGCCGGCAUGGUCCCAGCCUCCUCGCUGGCGCCGGCUGGGCAACACUCCGAGGGGACUGUCCCCUCGGUAAUGGCGAAUGGGACCCA [U46C C58U] | 0.7
GGCCGGCAUGGUCCCAGCCUCCUCGCUGGCGCCGGCUGGGCAACAGUCCGAGGGGACCGUCGCCUCGGUAAUGGCGAAUGGGACCCA [U46G C62G] | 0.0755
GGCCGGCAUGGUCCCAGCCUCCUCGCUGGCGCCGGCUGGGCAACACUCCGAGGGGACCGCCCCCUCGGUAAUGGCGAAUGGGACCCA [U46C U60C] | 0.772
GGCCGGCAUGGUCCCAGCCUCCUCGCUGGCGCCGGCUGGGCAACAGUCCGAGGGGACCGUCCCCCCGGUAAUGGCGAAUGGGACCCA [U46G U65C] | 0.615
GGCCGGCAUGGUCCCAGCCUCCUCGCUGGCGCCGGCUGGGCAACAGUCCGAGAGGACCGUCCCCUCGGUAAUGGCGAAUGGGACCCA [U46G G53A] | 0.527
GGCCGGCAUGGUCCCAGCCUCCUCGCUGGCGCCGGCUGGGCAACAGUCCGAGGGGACCGUCCCCUCAGUAAUGGCGAAUGGGACCCA [U46G G67A] | 0.527
GGCCGGCAUGGUCCCAGCCUCCUCGCUGGCGCCGGCUGGGCAACACUCCGAAGGGACCGUCCCCUCGGUAAUGGCGAAUGGGACCCA [U46C G52A] | 1.03
GGCCGGCAUGGUCCCAGCCUCCUCGCUGGCGCCGGCUGGGCAACACUCCUAGGGGACCGUCCCCUCGGUAAUGGCGAAUGGGACCCA [U46C G50U] | 0.779
GGCCGGCAUGGUCCCAGCCUCCUCGCUGGCGCCGGCUGGGCAACACUCCGAGGGGACCGUCCCCUCGGUAAUGGCUAAUGGGACCCA [U46C G76U] | 1.23
GGCCGGCAUGGUCCCAGCCUCCUCGCUGGCGCCGGCUGGGCAACACUCCGAGGGGACCGUCCCCUCAGUAAUGGCGAAUGGGACCCA [U46C G67A] | 0.671

Variant | self-cleavage
GGCCGGCAUGGUCCCAGCCUCCUCGCUGGCGCCGGCUGGGCAACACUCAGAGGGGACCGUCCCCUCGGUAAUGGCGAAUGGGACCCA [U46C C49A] | 0.54
GGCCGGCAUGGUCCCAGCCUCCUCGCUGGCGCCGGCUGGGCAACACUCCGAGGGGACCGUCCCCUCGGUAAUGGCGAAAGGGACCCA [U46C U79A] | 0.798
GGCCGGCAUGGUCCCAGCCUCCUCGCUGGCGCCGGCUGGGCAACACCCCGAGGGGACCGUCCCCUCGGUAAUGGCGAAUGGGACCCA [U46C U47C] | 0.743
GGCCGGCAUGGUCCCAGCCUCCUCGCUGGCGCCGGCUGGGCAACACACCGAGGGGACCGUCCCCUCGGUAAUGGCGAAUGGGACCCA [U46C U47A] | 1.08
GGCCGGCAUGGUCCCAGCCUCCUCGCUGGCGCCGGCUGGGCAACACUCCGAGGGGACCGUCCCCUCGGUAAUGGCGAAUGGGACGCA [U46C C85G] | 0.675
GGCCGGCAUGGUCCCAGCCUCCUCGCUGGCGCCGGCUGGGCAACACUCCGAGGGGACCGUCCCCUCGGUAAUGGCGAAUGGGACACA [U46C C85A] | 0.617
GGCCGGCAUGGUCCCAGCCUCCUCGCUGGCGCCGGCUGGGCAACACUCCGAGGGGACCGUCCCCUCGGUAAUGGCGAAUGGGACUCA [U46C C85U] | 0.615
GGCCGGCAUGGUCCCAGCCUCCUCGCUGGCGCCGGCUGGGCAACACUCCGAGGGGACCGUCCCCUCGGUAAUUGCGAAUGGGACCCA [U46C G73U] | 0.151
GGCCGGCAUGGUCCCAGCCUCCUCGCUGGCGCCGGCUGGGCAACACUCCGAGGGGACCGUCCCCUCGGUAAUAGCGAAUGGGACCCA [U46C G73A] | 0.475
GGCCGGCAUGGUCCCAGCCUCCUCGCUGGCGCCGGCUGGGCAACAGUCCGAGGGGACCGUCCCCUCGAUAAUGGCGAAUGGGACCCA [U46G G68A] | 0.608
GGCCGGCAUGGUCCCAGCCUCCUCGCUGGCGCCGGCUGGGCAACAGUCCGUGGGGACCGUCCCCUCGGUAAUGGCGAAUGGGACCCA [U46G A51U] | 0.45
GGCCGGCAUGGUCCCAGCCUCCUCGCUGGCGCCGGCUGGGCAACACUUCGAGGGGACCGUCCCCUCGGUAAUGGCGAAUGGGACCCA [U46C C48U] | 0.655
GGCCGGCAUGGUCCCAGCCUCCUCGCUGGCGCCGGCUGGGCAACACUCCGAGGGUACCGUCCCCUCGGUAAUGGCGAAUGGGACCCA [U46C G55U] | 0.831
GGCCGGCAUGGUCCCAGCCUCCUCGCUGGCGCCGGCUGGGCAACACUCCGAGGGGACCGUCCCCUCGGUAAUGGCGAAUGUGACCCA [U46C G81U] | 0.302
GGCCGGCAUGGUCCCAGCCUCCUCGCUGGCGCCGGCUGGGCAACACUCCGAGGGGACCGUCCCCUCGCUAAUGGCGAAUGGGACCCA [U46C G68C] | 0.739
GGCCGGCAUGGUCCCAGCCUCCUCGCUGGCGCCGGCUGGGCAACACUCCGAGGGGACCGUCCCCUCGGUAAUGGCGAAUGGGACCCG [U46C A87G] | 0.727
GGCCGGCAUGGUCCCAGCCUCCUCGCUGGCGCCGGCUGGGCAACACUCCGAGGGGACCGUCCCCUCGGUAAUGGCGAAUGGGACCUA [U46C C86U] | 0.697
GGCCGGCAUGGUCCCAGCCUCCUCGCUGGCGCCGGCUGGGCAACAGUCCGAGGGGACCGUCCCCUCGGUAAUGGCGAAUGGGGCCCA [U46G A83G] | 0.746
GGCCGGCAUGGUCCCAGCCUCCUCGCUGGCGCCGGCUGGGCAACACUCCGAGGGGACCGUCCCAUCGGUAAUGGCGAAUGGGACCCA [U46C C64A] | 0.569
GGCCGGCAUGGUCCCAGCCUCCUCGCUGGCGCCGGCUGGGCAACAGUCGGAGGGGACCGUCCCCUCGGUAAUGGCGAAUGGGACCCA [U46G C49G] | 0.465
GGCCGGCAUGGUCCCAGCCUCCUCGCUGGCGCCGGCUGGGCAACAGUCUGAGGGGACCGUCCCCUCGGUAAUGGCGAAUGGGACCCA [U46G C49U] | 0.8
GGCCGGCAUGGUCCCAGCCUCCUCGCUGGCGCCGGCUGGGCAACACUCCGAGGGGACCGUCCCCUCGGUAAUGCCGAAUGGGACCCA [U46C G74C] | 0.277

Variant | self-cleavage
GGCCGGCAUGGUCCCAGCCUCCUCGCUGGCGCCGGCUGGGCAACACUCCGAGUGGACCGUCCCCUCGGUAAUGGCGAAUGGGACCCA [U46C G53U] | 0.831
GGCCGGCAUGGUCCCAGCCUCCUCGCUGGCGCCGGCUGGGCAACACUCCGAGGGGAACGUCCCCUCGGUAAUGGCGAAUGGGACCCA [U46C C57A] | 1.22
GGCCGGCAUGGUCCCAGCCUCCUCGCUGGCGCCGGCUGGGCAACAGUCCGAGGGGACCGUCCCCUCGGUAAUGGCGAAUGGAACCCA [U46G G82A] | 0.161
GGCCGGCAUGGUCCCAGCCUCCUCGCUGGCGCCGGCUGGGCAACACUCCGAGGGGACCGUCCUCUCGGUAAUGGCGAAUGGGACCCA [U46C C63U] | 0.671
GGCCGGCAUGGUCCCAGCCUCCUCGCUGGCGCCGGCUGGGCAACACUCCGAGGGGACCGUCCACUCGGUAAUGGCGAAUGGGACCCA [U46C C63A] | 0.718
GGCCGGCAUGGUCCCAGCCUCCUCGCUGGCGCCGGCUGGGCAACAGUCCGAGGGGACCGUCCCCUCGGUAAUGUCGAAUGGGACCCA [U46G G74U] | 0.529
GGCCGGCAUGGUCCCAGCCUCCUCGCUGGCGCCGGCUGGGCAACAGUCCGAGGGGACCGUCCCCUCGGUAAUGGCGAAUGGGACCCC [U46G A87C] | 0.966
GGCCGGCAUGGUCCCAGCCUCCUCGCUGGCGCCGGCUGGGCAACAGUCCGAGGGGACCGUCCCCUCGGUAAUGGCGAAUGGGACCCU [U46G A87U] | 0.67
GGCCGGCAUGGUCCCAGCCUCCUCGCUGGCGCCGGCUGGGCAACACUCCGAGGGGACCGUCCCCUCGGGAAUGGCGAAUGGGACCCA [U46C U69G] | 1.08
GGCCGGCAUGGUCCCAGCCUCCUCGCUGGCGCCGGCUGGGCAACACUCCGAGGGGACCGUCCCCUCGGAAAUGGCGAAUGGGACCCA [U46C U69A] | 0.918
GGCCGGCAUGGUCCCAGCCUCCUCGCUGGCGCCGGCUGGGCAACACUCCGAGGGGACCGUCCCCUCGGUAAUGGCGAAUGGGGCCCA [U46C A83G] | 0.402
GGCCGGCAUGGUCCCAGCCUCCUCGCUGGCGCCGGCUGGGCAACAGUCCGAGGGGACCGUCCCCUCGGUAAUCGCGAAUGGGACCCA [U46G G73C] | 0.499
GGCCGGCAUGGUCCCAGCCUCCUCGCUGGCGCCGGCUGGGCAACAGUCCGAGGGGACCGUCCCCUCGGUAAUGGCGAAUAGGACCCA [U46G G80A] | 0.0811
GGCCGGCAUGGUCCCAGCCUCCUCGCUGGCGCCGGCUGGGCAACAAUCCGAGGGGACCGUCCCCUCGGGAAUGGCGAAUGGGACCCA [U46A U69G] | 0.793
GGCCGGCAUGGUCCCAGCCUCCUCGCUGGCGCCGGCUGGGCAACACUCCGAGGGGGCCGUCCCCUCGGUAAUGGCGAAUGGGACCCA [U46C A56G] | 0.643
GGCCGGCAUGGUCCCAGCCUCCUCGCUGGCGCCGGCUGGGCAACAGUCCGAGGGGACCCUCCCCUCGGUAAUGGCGAAUGGGACCCA [U46G G59C] | 0.831
GGCCGGCAUGGUCCCAGCCUCCUCGCUGGCGCCGGCUGGGCAACACUCCGAGGGGACCGUCCCCUGGGUAAUGGCGAAUGGGACCCA [U46C C66G] | 0.594
GGCCGGCAUGGUCCCAGCCUCCUCGCUGGCGCCGGCUGGGCAACAGUCCGAGGGGGCCGUCCCCUCGGUAAUGGCGAAUGGGACCCA [U46G A56G] | 0.499
GGCCGGCAUGGUCCCAGCCUCCUCGCUGGCGCCGGCUGGGCAACAGUCCGAGGGGUCCGUCCCCUCGGUAAUGGCGAAUGGGACCCA [U46G A56U] | 0.917
GGCCGGCAUGGUCCCAGCCUCCUCGCUGGCGCCGGCUGGGCAACAGUCCGAAGGGACCGUCCCCUCGGUAAUGGCGAAUGGGACCCA [U46G G52A] | 0.297
